Reference: PMC12077105, “PASTA kinase signaling regulates peptidoglycan synthesis in Enterococcus faecalis by direct inhibition of UDP-N-acetylglucosamine 1-carboxyvinyl transferase activity” (mBio, 2025)

Key:
[1] = biological target: recombinant MurAB-His6 (E. faecalis) (UniProt Q836E5); experiment: thermal shift assay; 2.5 uM MurAB with rising molar ratios of test protein, 10x SYPRO Orange, 50 mM Tris, 25 mM NaCl, pH 7.5; change of the MurAB melt temperature
[2] = biological target: T1, recombinant MurAB-His6 (E. faecalis, UniProt Q836E5 1-430); experiment: as above; details: both partners purified
T1 construct: MurAB, UDP-N-acetylglucosamine 1-carboxyvinyl transferase (secondary homolog) of Enterococcus faecalis; wild-type allele amplified from OG1RF genomic DNA; also called secondary UNAG-CTase; source: E. coli C43(DE3), purified
T1 sequence: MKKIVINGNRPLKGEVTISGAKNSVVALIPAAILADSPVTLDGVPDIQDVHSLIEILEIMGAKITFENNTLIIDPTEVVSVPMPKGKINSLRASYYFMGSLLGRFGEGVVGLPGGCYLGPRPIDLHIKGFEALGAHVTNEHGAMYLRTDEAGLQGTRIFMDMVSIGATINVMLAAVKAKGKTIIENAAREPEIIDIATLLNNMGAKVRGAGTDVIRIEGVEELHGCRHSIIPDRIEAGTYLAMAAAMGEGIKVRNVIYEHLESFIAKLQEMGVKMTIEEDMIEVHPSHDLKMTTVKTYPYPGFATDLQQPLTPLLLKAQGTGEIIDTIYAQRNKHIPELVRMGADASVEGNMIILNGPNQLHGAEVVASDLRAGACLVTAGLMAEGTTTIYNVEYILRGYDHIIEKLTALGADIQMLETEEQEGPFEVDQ

[3] = biological target: T1, recombinant MurAB-His6; experiment: cell-based or functional assay

Q: Which maximum shift of the MurAB Tm [1] does the source give for “purified recombinant IreB D50A (expressed as His6-SUMO-IreB D50A) (from UniProt Q836B3 1-89) (natural protein)” here?
A: 1.5 °C

B1: purified recombinant wild-type IreB (expressed as His6-SUMO-IreB) (natural protein)
chain: MGFTDETVRFDFDDNRKKAISETLETVYRALEEKGYNPINQIVGYLLSGDPAYIPRYQDARNLIRRHERDEIMEELTKYYLANHGIDIK
notes: IreB of Enterococcus faecalis; wild-type allele amplified from OG1RF genomic DNA; IreB for the enzymatic assays was purified in MOPS buffer; also called unphosphorylated IreB; source: E. coli BL21(DE3), purified (Ni-charged resin)
Q: For B1, which “maximum shift of the MurAB Tm” value [2] is on record?
A: 5 °C

Q: And the “UNAG-CTase activity of purified MurAB (release of inorganic phosphate) with 10-fold molar excess of IreB: decrease of the reaction rate” value [3]?
A: ~25%
